From patent publication US20240352452A1

Columns and labels:
Assay in all cases: CasPlay immunoprecipitation of the virome-wide library (245,002 barcodes), z-score of gRNA barcodes
[1] = target: dCas9-myc epitope tag control peptide (CasPlay virome library) (Streptococcus pyogenes) (UniProt Q99ZW2)
[2] = target: dCas9-HA epitope tag control peptide (CasPlay virome library) (Streptococcus pyogenes) (UniProt Q99ZW2)
[3] = target: dCas9-FLAG peptide fusion (CasPlay library member, C-terminal 6His tag) (Streptococcus pyogenes) (UniProt Q99ZW2)

Which rank of z-score among all peptides of the library [1] does the source give for anti-myc antibody (Abcam ab9106) here?
The rank of z-score among all peptides of the library was < 0.2%.

For anti-HA antibody (Cell Signaling C29F4), which rank of z-score among all peptides of the library [2] is on record?
Its rank of z-score among all peptides of the library is < 0.2%.

For anti-FLAG M2 antibody, which rank of z-score among all peptides of the library [3] is on record?
Its rank of z-score among all peptides of the library is < 0.2%.
